Three molecules from publication PMC4681132 (Nature, 2015) can be followed below.

T1: RNA polymerase III subunit C160 (S. cerevisiae, UniProt P04051 1-1460)
T1 sequence: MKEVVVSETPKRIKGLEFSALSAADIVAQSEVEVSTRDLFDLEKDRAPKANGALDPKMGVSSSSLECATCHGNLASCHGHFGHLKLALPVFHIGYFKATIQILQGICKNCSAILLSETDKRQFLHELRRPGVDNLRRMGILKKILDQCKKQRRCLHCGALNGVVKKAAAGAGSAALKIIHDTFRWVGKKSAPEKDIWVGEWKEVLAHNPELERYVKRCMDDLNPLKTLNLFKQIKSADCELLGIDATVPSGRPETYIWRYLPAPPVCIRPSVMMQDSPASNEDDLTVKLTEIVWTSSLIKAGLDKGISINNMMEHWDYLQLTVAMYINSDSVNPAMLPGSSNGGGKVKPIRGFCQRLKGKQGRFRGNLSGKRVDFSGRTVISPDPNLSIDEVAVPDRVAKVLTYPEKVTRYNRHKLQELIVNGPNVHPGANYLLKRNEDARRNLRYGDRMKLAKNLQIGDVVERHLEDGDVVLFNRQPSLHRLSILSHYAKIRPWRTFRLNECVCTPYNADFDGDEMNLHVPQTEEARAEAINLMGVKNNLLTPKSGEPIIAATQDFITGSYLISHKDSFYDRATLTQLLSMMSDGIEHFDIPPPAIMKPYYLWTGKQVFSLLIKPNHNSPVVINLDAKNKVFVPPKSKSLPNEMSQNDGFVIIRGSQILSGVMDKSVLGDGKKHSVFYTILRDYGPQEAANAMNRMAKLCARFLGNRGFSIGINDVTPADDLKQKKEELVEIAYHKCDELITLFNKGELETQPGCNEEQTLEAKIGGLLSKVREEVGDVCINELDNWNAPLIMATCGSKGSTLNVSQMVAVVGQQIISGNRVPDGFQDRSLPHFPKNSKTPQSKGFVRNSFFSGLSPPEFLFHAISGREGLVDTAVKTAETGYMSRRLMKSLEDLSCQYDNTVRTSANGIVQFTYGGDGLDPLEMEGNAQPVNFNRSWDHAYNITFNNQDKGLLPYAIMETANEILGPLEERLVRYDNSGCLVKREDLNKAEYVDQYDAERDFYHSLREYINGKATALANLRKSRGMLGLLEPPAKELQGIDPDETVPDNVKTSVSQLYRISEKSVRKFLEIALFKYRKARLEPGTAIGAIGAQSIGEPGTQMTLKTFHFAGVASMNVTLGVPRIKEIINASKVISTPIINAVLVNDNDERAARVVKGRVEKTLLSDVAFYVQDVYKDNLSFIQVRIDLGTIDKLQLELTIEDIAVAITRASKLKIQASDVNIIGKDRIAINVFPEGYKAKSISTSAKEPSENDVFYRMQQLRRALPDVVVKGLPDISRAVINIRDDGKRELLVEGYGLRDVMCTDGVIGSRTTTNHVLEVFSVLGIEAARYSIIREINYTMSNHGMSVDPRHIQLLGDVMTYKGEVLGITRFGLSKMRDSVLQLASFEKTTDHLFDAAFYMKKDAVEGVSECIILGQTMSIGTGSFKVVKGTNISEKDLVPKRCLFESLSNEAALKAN

T2: RNA polymerase III subunit C128 (S. cerevisiae, UniProt P22276 1-1149)
T2 sequence: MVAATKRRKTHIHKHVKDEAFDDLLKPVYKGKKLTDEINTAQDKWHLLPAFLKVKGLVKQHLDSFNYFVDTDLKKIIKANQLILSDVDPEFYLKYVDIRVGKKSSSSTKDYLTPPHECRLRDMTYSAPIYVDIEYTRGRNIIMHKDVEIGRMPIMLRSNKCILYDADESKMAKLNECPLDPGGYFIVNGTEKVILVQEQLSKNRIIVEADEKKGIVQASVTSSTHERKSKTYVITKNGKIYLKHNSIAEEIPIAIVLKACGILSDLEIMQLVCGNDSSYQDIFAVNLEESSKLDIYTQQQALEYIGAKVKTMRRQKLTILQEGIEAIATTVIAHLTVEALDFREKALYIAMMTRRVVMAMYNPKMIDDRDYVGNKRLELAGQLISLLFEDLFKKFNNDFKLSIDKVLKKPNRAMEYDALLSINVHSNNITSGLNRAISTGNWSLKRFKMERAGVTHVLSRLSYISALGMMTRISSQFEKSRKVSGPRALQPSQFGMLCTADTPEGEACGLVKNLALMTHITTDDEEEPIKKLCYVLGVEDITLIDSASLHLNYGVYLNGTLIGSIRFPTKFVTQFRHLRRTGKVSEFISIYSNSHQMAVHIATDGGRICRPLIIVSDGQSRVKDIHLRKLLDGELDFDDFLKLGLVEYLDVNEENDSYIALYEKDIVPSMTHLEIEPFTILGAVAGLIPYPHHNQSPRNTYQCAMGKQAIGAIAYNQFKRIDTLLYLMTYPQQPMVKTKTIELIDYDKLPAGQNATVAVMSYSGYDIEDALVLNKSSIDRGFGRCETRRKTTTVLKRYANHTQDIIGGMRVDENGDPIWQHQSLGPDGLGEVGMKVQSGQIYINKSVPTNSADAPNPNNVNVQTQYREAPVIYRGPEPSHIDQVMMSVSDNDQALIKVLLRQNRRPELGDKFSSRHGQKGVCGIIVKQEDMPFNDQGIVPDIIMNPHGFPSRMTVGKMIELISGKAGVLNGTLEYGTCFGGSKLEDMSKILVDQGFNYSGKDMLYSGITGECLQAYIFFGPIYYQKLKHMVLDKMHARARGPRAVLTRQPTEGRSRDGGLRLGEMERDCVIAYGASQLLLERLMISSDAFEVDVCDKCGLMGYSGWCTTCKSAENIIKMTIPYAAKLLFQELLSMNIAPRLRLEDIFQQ

T3: RNA polymerase III stalk subunit C25 (S. cerevisiae, UniProt P35718 1-212)
T3 sequence: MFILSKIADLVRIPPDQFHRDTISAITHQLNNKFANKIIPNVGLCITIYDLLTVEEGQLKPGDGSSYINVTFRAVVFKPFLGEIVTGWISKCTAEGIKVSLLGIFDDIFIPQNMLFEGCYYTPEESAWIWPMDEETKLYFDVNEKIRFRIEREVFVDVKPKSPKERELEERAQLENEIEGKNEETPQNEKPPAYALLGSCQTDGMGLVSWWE

T4: RNA polymerase III subunit C53 (S. cerevisiae, UniProt P25441 1-422)
T4 sequence: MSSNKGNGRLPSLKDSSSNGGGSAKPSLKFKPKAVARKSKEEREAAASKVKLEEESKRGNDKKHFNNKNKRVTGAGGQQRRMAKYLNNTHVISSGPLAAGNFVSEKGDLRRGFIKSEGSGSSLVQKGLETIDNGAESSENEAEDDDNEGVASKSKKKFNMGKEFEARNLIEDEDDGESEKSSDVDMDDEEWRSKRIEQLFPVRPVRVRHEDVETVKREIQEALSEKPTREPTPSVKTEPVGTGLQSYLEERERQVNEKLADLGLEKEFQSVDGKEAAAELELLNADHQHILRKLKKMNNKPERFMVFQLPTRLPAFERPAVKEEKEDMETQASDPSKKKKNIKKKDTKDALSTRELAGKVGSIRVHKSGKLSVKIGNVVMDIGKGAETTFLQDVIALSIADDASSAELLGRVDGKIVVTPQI

B1: RNA polymerase III subunit C11 (natural protein, S. cerevisiae)
chain: MLSFCPSCNNMLLITSGDSGVYTLACRSCPYEFPIEGIEIYDRKKLPRKEVDDVLGGGWDNVDQTKTQCPNYDTCGGESAYFFQLQIRSADEPMTTFYKCVNCGHRWKEN
B2: RNA polymerase III stalk subunit C17 (natural protein, S. cerevisiae)
chain: MKVLEERNAFLSDYEVLKFLTDLEKKHLWDQKSLAALKKSRSKGKQNRPYNHPELQGITRNVVNYLSINKNFINQEDEGEERESSGAKDAEKSGISKMSDESFAELMTKLNSFKLFKAEKLQIVNQLPANMVHLYSIVEECDARFDEKTIEEMLEIISGYA
B3: RNA polymerase III subunit C37 (natural protein, S. cerevisiae)
chain: MSIDNKLFVTEEDEEDRTQDRADVEDESNDIDMIADENGTNSAIANEQEEKSEEVKAEDDTGEEEEDDPVIEEFPLKISGEEESLHVFQYANRPRLVGRKPAEHPFISAARYKPKSHLWEIDIPLDEQAFYNKDKAESEWNGVNVQTLKGVGVENNGQYAAFVKDMQVYLVPIERVAQLKPFFKYIDDANVTRKQEDARRNPNPSSQRAQVVTMSVKSVNDPSQNRLTGSLLAHKVADEEANIELTWAEGTFEQFKDTIVKEAEDKTLVALEKQEDYIDNLV

Test in all cases: cryo-EM structure
Assay [1] has as its target T1, RNA polymerase III subunit C160.
For assay [2], the target named is B3.
Assay [3] concerns the target T2, RNA polymerase III subunit C128.
In assay [4] the target is T3, RNA polymerase III stalk subunit C25.
Assay [5] addresses T4, RNA polymerase III subunit C53.

On to B1, for which the binding result in assay [1], in assay [2] and in assay [3] was “binds” throughout.
As to B2, the binding result in assay [1] and in assay [4] was “binds” each time.
For the molecule B3, the binding result in assay [5] and in assay [3] was “binds” throughout.
